# T1: AbiV (AbiV1, HEPN RNase toxin) (Lactococcus cremoris MG1363, UniProt A2RJ64 1-201)
# T1 sequence: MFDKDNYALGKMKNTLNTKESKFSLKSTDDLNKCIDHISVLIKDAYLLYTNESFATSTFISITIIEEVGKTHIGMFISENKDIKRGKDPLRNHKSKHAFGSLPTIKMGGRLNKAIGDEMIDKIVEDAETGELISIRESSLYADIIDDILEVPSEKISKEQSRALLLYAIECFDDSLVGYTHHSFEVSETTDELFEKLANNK
# Columns and labels:
# [1] = biological target: N-terminal truncated AbiV lacking its first 23 amino acids (AbiV_Δ23) (L. cremoris MG1363); assay: crystal structure
# [2] = biological target: surface lysine methylated full-length AbiV (product of abiV1) from L. cremoris MG1363 (L. cremoris MG1363); assay: crystal structure
# [3] = biological target: T1, AbiV (AbiV1, HEPN RNase toxin); assay: EMSA
Molecule,binding result [3],also measured
N-terminal truncated AbiV lacking its first 23 amino acids (AbiV_Δ23) (domain or fragment),–,stoichiometry N [1]: 2
surface lysine methylated full-length AbiV (product of abiV1) from L. cremoris MG1363 (enzyme),–,stoichiometry N [2]: 2
AAGUAGCUGCAACUACUA (ssRNA) [abiV2 motif85-102 (18-mer short RNA)],binds,–
AAUUGAUACUGUCAAUA (ssRNA) [abiV2 motif50-66 (17-mer short RNA)],no binding,–

# — article doi:10.1101/2024.05.05.592566
